The text below walks through data of article PMC4752221, “Nuclear Export of Pre-Ribosomal Subunits Requires Dbp5, but Not as an RNA-Helicase as for mRNA Export” (PLoS ONE, 2016).

The assay concerns the target T1, His-Mtr2+Mex67 heterodimer (S. cerevisiae, UniProt Q99257 1-599; P34232 1-184).
T1 construct: Mex67 of S. cerevisiae, co-expressed with His-Mtr2; Mtr2 of S. cerevisiae, His-tagged; also called His-Mtr2 and Mex67; Mex67-Mtr2; source: E. coli BL21 DE3, co-expressed, purified (Ni-NTA agarose)
T1 sequence (looked up) 1: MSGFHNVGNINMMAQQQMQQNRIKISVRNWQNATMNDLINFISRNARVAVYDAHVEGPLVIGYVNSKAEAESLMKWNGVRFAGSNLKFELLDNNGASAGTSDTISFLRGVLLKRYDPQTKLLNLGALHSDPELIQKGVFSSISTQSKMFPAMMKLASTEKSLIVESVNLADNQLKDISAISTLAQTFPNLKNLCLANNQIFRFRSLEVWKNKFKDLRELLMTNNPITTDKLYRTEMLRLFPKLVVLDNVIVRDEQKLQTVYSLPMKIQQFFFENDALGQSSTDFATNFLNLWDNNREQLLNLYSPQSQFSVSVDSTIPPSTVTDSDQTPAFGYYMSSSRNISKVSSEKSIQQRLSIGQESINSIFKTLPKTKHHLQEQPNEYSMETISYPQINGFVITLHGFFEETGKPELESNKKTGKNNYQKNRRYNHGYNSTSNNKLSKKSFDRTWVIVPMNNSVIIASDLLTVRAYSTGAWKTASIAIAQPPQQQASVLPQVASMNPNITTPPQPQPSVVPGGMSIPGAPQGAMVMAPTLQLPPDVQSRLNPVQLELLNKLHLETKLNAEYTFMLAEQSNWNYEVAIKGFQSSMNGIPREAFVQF
T1 sequence (looked up) 2: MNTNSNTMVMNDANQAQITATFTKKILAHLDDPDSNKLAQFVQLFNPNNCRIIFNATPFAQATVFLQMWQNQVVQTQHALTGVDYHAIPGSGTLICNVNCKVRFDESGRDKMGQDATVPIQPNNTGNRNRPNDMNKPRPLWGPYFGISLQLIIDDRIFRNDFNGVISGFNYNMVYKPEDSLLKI
Put plainly: pull-down; 100 μg purified GST-Dbp5 (mixed with bacterial lysate) held on Glutathione Sepharose 4B beads, washed, then 28 μg purified His-Mtr2+Mex67 added, 1 h at 4°C; 20 mM HEPES pH7.5, 100 mM NaCl, 4 mM MgCl2, 10% Glycerol, 0.1% NP-40, 1 mM DTT; with or without 1 mM ATP and 0.2 mg/ml RNase A (binding increased by ATP, not influenced by RNase A); Western blot and Coomassie. The settings on record: both partners purified.

B1: GST-Dbp5 (natural protein, S. cerevisiae, UniProt P20449 1-482, looked up)
chain: MSDTKRDPADLLASLKIDNEKEDTSEVSTKETVKSQPEKTADSIKPAEKLVPKVEEKKTKQEDSNLISSEYEVKVKLADIQADPNSPLYSAKSFDELGLAPELLKGIYAMKFQKPSKIQERALPLLLHNPPRNMIAQSQSGTGKTAAFSLTMLTRVNPEDASPQAICLAPSRELARQTLEVVQEMGKFTKITSQLIVPDSFEKNKQINAQVIVGTPGTVLDLMRRKLMQLQKIKIFVLDEADNMLDQQGLGDQCIRVKRFLPKDTQLVLFSATFADAVRQYAKKIVPNANTLELQTNEVNVDAIKQLYMDCKNEADKFDVLTELYGLMTIGSSIIFVATKKTANVLYGKLKSEGHEVSILHGDLQTQERDRLIDDFREGRSKVLITTNVLARGIDIPTVSMVVNYDLPTLANGQADPATYIHRIGRTGRFGRKGVAISFVHDKNSFNILSAIQKYFGDIEMTRVPTDDWDEVEKIVKKVLKD
notes: Dbp5 (Rat8) of S. cerevisiae, GST-tagged, DBP5 in a pGEX backbone; also called recombinant GST-tagged Dbp5; source: E. coli Rosetta 2, purified (GSTrap 4B Glutathione Sepharose)
In the case of B1, the binding result was “binds”.
